Laboratory results: patent US6673587B1, “Histone deacetylase, and uses therefor” (The Salk Institute for Biological Studies, priority 2000, dated 2004)

Molecular target: T1, GAL DBD-SMRT (RD III+IV), pGBT9-hSMRT (1060-1831) (human, UniProt P04386 1-147; Q9Y618 1060-1831)
T1 construct: domain: GAL DBD;range 1060-1831; Bait of the yeast two-hybrid screen and assays in strain Y190; also called SMRT repression domains III and IV; SMRT RD III and IV
Experiment: yeast two-hybrid, growth on -Trp-Leu-His+40 mM 3-AT plates
Protocol: (Verdel and Khochbin, 1999, supra)). A series of AD-HDAC constructs were generated for interaction assays in yeast. Transformants harboring both plasmids were picked and patched onto nutrient selection plates. Only cells that contain plasmids carrying an interacting partner are able to activate reporter gene HIS3 and therefore are viable in the selection plate -Trp-Leu-His+40 mM 3-AT. […] After three days, two isolated colonies were picked, resuspended in water, and […] were dropped on both -Trp-Leu and -Trp-Leu-His+40 mM 3-AT plates. Pictures were taken after three days.

Binder	binding result
AD-HDAC3 (deacetylase domain of HDAC3, GAL AD fusion) (enzyme, UniProt O15379 3-316, looked up, not shown: large carriers, domain: deacetylase domain) KTVAYFYDPDVGNFHYGAGHPMKPHRLALTHSLVLHYGLYKKMIVFKPYQASQHDMCRFHSEDYIDFLQRVSPTNMQGFTKSLNAFNVGDDCPVFPGLFEFCSRYTGASLQGATQLNNKICDIAINWAGGLHHAKKFEASGFCYVNDIVIGILELLKYHPRVLYIDIDIHHGDGVQEAFYLTDRVMTVSFHKYGNYFFPGTGDMYEVGAESGRYYCLNVPLRDGIDDQSYKHLFQPVINQVVDFYQPTCIVLQCGADSLGCDRLGCFNLSIRGHGECVEYVKSFNIPLLVLGGGGYTVRNVARCWTYETSLLVE	no binding
AD-HDAC1 (deacetylase domain of HDAC1, GAL AD fusion) (enzyme, UniProt Q13547 9-321, looked up, not shown: large carriers, domain: deacetylase domain) RKVCYYYDGDVGNYYYGQGHPMKPHRIRMTHNLLLNYGLYRKMEIYRPHKANAEEMTKYHSDDYIKFLRSIRPDNMSEYSKQMQRFNVGEDCPVFDGLFEFCQLSTGGSVASAVKLNKQQTDIAVNWAGGLHHAKKSEASGFCYVNDIVLAILELLKYHQRVLYIDIDIHHGDGVEEAFYTTDRVMTVSFHKYGEYFPGTGDLRDIGAGKGKYYAVNYPLRDGIDDESYEAIFKPVMSKVMEMFQPSAVVLQCGSDSLSGDRLGCFNLTIKGHAKCVEFVKSFNLPMLMLGGGGYTIRNVARCWTYETAVALD	no binding
